{"source": "patent US7803572B2", "about": "“Protease detection assay” (Atlas Genetics, Ltd., priority 2003, dated 2010)", "key": {"[1]": {"molecular_target": "T1, porcine pancreas trypsin (Sus scrofa, UniProt P00761)", "T1 construct": "purchased Sigma; host or cells: porcine pancreas", "experiment": "Digestion of labelled protein with trypsin, differential pulse voltammetry", "type": "biochemical", "experimental": "(§1) Protease assays were performed as follows unless stated otherwise. […] Samples were incubated at 37° C. for 1 hour.\nA digestion of Fc-BSA with trypsin was carried out as described above. […] The positive reaction has a peak position of 435 mV and a peak height of 4.58×10^−7 A; the no trypsin control reaction has a peak position of 432 mV and a peak height of 2.55×10^−8 A.\nA digestion of unlabelled BSA with trypsin was carried out in the same manner as for the labelled molecules as described above. The differential pulse voltammogram results are shown in FIG. 10 in which (a) is the trace for a no-trypsin control reaction and (b) is the trace for trypsin BSA reaction.\nA digestion of FcU-BSA with trypsin was carried out as described above. […] The positive reaction has a peak position of 97 mV and a peak height of 5.01×10^−7 A; there was no peak in the no-trypsin control reaction. […]\nFive digestions of Fc-BSA with trypsin were carried out using the protocol described above. As described in the general protocol, 2 μl of enzyme was used for each 200 μl reaction; for reaction (i) 10 mg/ml enzyme solution was used; reaction (ii): 1 mg/ml; reaction (iii) 0.1 mg/ml; reaction (iv) 0.01 mg/ml and reaction (v) was a no-trypsin control. The differential pulse voltammogram results are shown in FIG. 14 with baseline correction.\nFive digestions of Fc-BSA with trypsin were carried out using the protocol described above. In reaction (i) the incubation at 37° was carried out for 60 minutes, in reaction (ii) for 15 minutes, in reaction (iii) for 5 minutes, in reaction (iv) for 2 minutes and reaction (v) was a 0 minutes no-trypsin control. The differential pulse voltammogram results are shown in FIG. 15 with baseline correction."}, "[2]": {"molecular_target": "T2, papain (Carica papaya, UniProt P00784)", "T2 construct": "purchased Sigma; host or cells: papaya latex", "T2 sequence (P00784 134-345)": "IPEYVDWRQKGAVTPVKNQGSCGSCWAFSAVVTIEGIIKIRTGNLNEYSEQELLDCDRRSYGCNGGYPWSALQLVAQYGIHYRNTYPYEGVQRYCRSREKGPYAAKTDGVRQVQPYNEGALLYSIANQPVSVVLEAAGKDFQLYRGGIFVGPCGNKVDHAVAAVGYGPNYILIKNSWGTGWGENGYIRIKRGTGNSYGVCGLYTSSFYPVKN", "experiment": "Amperometric analysis of papain digestion", "type": "biochemical", "details": "amperometric time course trace, FIG. 18", "experimental": "(§2) Four digestion reactions were carried out with real-time amperometric analysis. […] Tryspin was resuspended in HCl (1 mM, pH 3.0), papain and carboxypeptidase were resuspended in NaCl (100 mM). […] The amperometry conditions were as set out in Tables 2 and 3.\n(§3) In FIG. 18, there is shown the amperometric time course trace for the papain digestion of FcU-BSA. […] As the movement of the species present in the solution reaches a steady state, the current response appears to decay. […] The amperometric time course trace for the trypsin digestion of FcU-BSA is not illustrated in the drawings but was analogous."}, "[3]": {"molecular_target": "T3, papaya latex papain (Carica papaya, UniProt P00784)", "T3 construct": "purchased Sigma; host or cells: papaya latex", "T3 sequence (P00784 134-345)": "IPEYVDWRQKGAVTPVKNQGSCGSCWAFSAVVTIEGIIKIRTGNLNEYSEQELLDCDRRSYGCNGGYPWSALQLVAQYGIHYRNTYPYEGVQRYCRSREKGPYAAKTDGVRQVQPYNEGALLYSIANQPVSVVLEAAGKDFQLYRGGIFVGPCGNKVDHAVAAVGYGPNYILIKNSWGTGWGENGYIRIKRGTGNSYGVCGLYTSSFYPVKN", "experiment": "Digestion of FcU-BSA with papain, differential pulse voltammetry", "type": "biochemical", "experimental": "as §1\nA digestion of FcU-BSA with papain was carried out as described above."}, "[4]": {"molecular_target": "T4, trypsin (Sus scrofa, UniProt P00761)", "T4 construct": "purchased Sigma; host or cells: porcine pancreas", "experiment": "Amperometric analysis of trypsin digestion", "type": "biochemical, porcine", "details": "amperometric time course trace", "experimental": "as §2\nIn FIG. 17, there is shown the amperometric time course trace for the trypsin digestion of Fc-BSA. […] As the movement of the species present in the solution reaches a steady state, the current response appears to decay.\nas §3"}, "[5]": {"molecular_target": "porcine pancreas trypsin (1120 BAEE units/mg solid) (porcine) (UniProt P00761)", "experiment": "cell-based or functional assay"}, "[6]": {"molecular_target": "T1, porcine pancreas trypsin", "experiment": "Effect of a protease inhibitor on electrochemical marker signal (trypsin digestion of Fc-BSA)", "type": "biochemical", "experimental": "as §1\nFive digestions of Fc-BSA with trypsin were carried out using the protocol described above. In addition, soybean trypsin inhibitor was added to reaction mixtures […]. Solutions of the soybean trypsin inhibitor were prepared by resuspending inhibitor as supplied in deionised water to a concentration of 10 mg/ml and 1 mg/ml as appropriate. No inhibitor was added to reaction (i); 0.5 μl of 1 mg/ml inhibitor solution was added to reaction (ii); […] of 10 mg/ml inhibitor was added to reaction (iii); 5 μl of 10 mg/ml inhibitor solution was added to reaction (iv) and 5 μl of 10 mg/ml inhibitor solution was added to a no-trypsin control reaction. The differential pulse voltammogram results are shown in FIG. 16 with baseline correction."}, "[7]": {"molecular_target": "T5, type I-S soybean trypsin inhibitor, P01070", "T5 chain": "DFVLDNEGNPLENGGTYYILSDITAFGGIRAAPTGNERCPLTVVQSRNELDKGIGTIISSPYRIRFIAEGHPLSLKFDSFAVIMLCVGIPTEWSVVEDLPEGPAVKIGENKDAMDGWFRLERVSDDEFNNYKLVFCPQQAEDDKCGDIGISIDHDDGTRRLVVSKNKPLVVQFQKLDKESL"}, "[8]": {"details": "positive reaction, 2 μl enzyme (10 mgml^−1), 37° C. for 1 hour"}, "[9]": {"details": "positive reaction, 37° C. for 1 hour"}, "[10]": {"details": "no-trypsin control reaction with 5 μl of 10 mg/ml inhibitor solution"}, "[11]": {"details": "reaction (ii): 0.5 μl of 1 mg/ml inhibitor solution"}, "[12]": {"details": "reaction (iii): 0.51 of 10 mg/ml inhibitor"}, "[13]": {"details": "reaction (iv): 5 μl of 10 mg/ml inhibitor solution"}}, "data": [{"molecule": "FcU-BSA: Bovine serum albumin labelled with 4-(3′-ferrocenylureido)-1-benzoyl groups", "values": [{"measurement": "peak height", "setting": "[1]; no-trypsin control reaction", "result": "no peak"}, {"measurement": "peak height", "setting": "[1]; [8]", "result": "5.01×10^−7 A"}, {"measurement": "peak position", "setting": "[1]; [8]", "result": 97, "unit": "mV"}, {"measurement": "faradaic current response over time after addition of the enzyme", "setting": "[2]", "result": "increase in current"}, {"measurement": "peak", "setting": "[3]; no-papain control reaction", "result": "no peak was found"}, {"measurement": "peak height", "setting": "[3]; [9]", "result": "2.62×10^−7 A"}, {"measurement": "peak position", "setting": "[3]; [9]", "result": 93, "unit": "mV"}, {"measurement": "faradaic current response over time after addition of the enzyme", "setting": "[4]", "result": "analogous"}]}, {"molecule": "unlabelled BSA: Bovine serum albumin (lyophilised powder, approx. 99%) from Sigma, unlabelled control substrate [reference compound]", "values": [{"measurement": "peaks in differential pulse voltammogram", "setting": "[1]; unlabelled substrate, trypsin reaction and no-trypsin control", "result": "No peaks were found"}]}, {"molecule": "type I-S soybean trypsin inhibitor (from UniProt P01070 25-205)", "values": [{"measurement": "peak height, differential pulse voltammogram of trypsin digestion of Fc-BSA; reaction (ii), 0.5 ul of 1 mg/ml inhibitor solution in the 200 ul reaction (no-inhibitor reaction (i): 2.56x10^-7 A)", "setting": "[5]", "result": "2.12e-07", "unit": "A"}]}, {"molecule": "soybean trypsin inhibitor: type I-S soybean trypsin inhibitor obtained from Sigma (protein) DFVLDNEGNPLENGGTYYILSDITAFGGIRAAPTGNERCPLTVVQSRNELDKGIGTIISSPYRIRFIAEGHPLSLKFDSFAVIMLCVGIPTEWSVVEDLPEGPAVKIGENKDAMDGWFRLERVSDDEFNNYKLVFCPQQAEDDKCGDIGISIDHDDGTRRLVVSKNKPLVVQFQKLDKESL", "values": [{"measurement": "peak height", "setting": "[6]; [10]", "result": "2.75×10^−8 A"}, {"measurement": "peak position", "setting": "[6]; [10]", "result": 429, "unit": "mV"}, {"measurement": "peak height", "setting": "[6]; [11]", "result": "2.12×10^−7 A"}, {"measurement": "peak position", "setting": "[6]; [11]", "result": 435, "unit": "mV"}, {"measurement": "peak height", "setting": "[6]; [12]", "result": "1.60×10^−7 A"}, {"measurement": "peak position", "setting": "[6]; [12]", "result": 430, "unit": "mV"}, {"measurement": "peak height", "setting": "[6]; [13]", "result": "5.33×10^−8 A"}, {"measurement": "peak position", "setting": "[6]; [13]", "result": 426, "unit": "mV"}]}, {"molecule": "porcine pancreas trypsin (1120 BAEE units/mg solid) (protein) IVGGYTCAANSIPYQVSLNSGSHFCGGSLINSQWVVSAAHCYKSRIQVRLGEHNIDVLEGNEQFINAAKIITHPNFNGNTLDNDIMLIKLSSPATLNSRVATVSLPRSCAAAGTECLISGWGNTKSSGSSYPSLLQCLKAPVLSDSSCKSSYPGQITGNMICVGFLEGGKDSCQGDSGGPVVCNGQLQGIVSWGYGCAQKNKPGVYTKVCNYVNWIQQTIAAN", "values": [{"measurement": "magnitude of signal in the differential pulse voltammogram of trypsin digestion of Fc-BSA", "setting": "[7]", "result": "the magnitude of signal in the differential pulse voltammogram is strongly dependent on the concentration of inhibitor present in the digestion experiment"}]}]}
